Laboratory results published in PMC3578133 (Cancer research, 2012).
Blank lines part the entries; values can stand above or below the binder they belong to.

Assays:
[1] = target: T1, recombinant full length flag-tagged N-CoR (amino-acid 1-2440) (human, UniProt O75376 1-2440); experiment: co-IP
[2] = target: T1, recombinant full length flag-tagged …; experiment: SPR

T1 sequence (O75376 whole entry): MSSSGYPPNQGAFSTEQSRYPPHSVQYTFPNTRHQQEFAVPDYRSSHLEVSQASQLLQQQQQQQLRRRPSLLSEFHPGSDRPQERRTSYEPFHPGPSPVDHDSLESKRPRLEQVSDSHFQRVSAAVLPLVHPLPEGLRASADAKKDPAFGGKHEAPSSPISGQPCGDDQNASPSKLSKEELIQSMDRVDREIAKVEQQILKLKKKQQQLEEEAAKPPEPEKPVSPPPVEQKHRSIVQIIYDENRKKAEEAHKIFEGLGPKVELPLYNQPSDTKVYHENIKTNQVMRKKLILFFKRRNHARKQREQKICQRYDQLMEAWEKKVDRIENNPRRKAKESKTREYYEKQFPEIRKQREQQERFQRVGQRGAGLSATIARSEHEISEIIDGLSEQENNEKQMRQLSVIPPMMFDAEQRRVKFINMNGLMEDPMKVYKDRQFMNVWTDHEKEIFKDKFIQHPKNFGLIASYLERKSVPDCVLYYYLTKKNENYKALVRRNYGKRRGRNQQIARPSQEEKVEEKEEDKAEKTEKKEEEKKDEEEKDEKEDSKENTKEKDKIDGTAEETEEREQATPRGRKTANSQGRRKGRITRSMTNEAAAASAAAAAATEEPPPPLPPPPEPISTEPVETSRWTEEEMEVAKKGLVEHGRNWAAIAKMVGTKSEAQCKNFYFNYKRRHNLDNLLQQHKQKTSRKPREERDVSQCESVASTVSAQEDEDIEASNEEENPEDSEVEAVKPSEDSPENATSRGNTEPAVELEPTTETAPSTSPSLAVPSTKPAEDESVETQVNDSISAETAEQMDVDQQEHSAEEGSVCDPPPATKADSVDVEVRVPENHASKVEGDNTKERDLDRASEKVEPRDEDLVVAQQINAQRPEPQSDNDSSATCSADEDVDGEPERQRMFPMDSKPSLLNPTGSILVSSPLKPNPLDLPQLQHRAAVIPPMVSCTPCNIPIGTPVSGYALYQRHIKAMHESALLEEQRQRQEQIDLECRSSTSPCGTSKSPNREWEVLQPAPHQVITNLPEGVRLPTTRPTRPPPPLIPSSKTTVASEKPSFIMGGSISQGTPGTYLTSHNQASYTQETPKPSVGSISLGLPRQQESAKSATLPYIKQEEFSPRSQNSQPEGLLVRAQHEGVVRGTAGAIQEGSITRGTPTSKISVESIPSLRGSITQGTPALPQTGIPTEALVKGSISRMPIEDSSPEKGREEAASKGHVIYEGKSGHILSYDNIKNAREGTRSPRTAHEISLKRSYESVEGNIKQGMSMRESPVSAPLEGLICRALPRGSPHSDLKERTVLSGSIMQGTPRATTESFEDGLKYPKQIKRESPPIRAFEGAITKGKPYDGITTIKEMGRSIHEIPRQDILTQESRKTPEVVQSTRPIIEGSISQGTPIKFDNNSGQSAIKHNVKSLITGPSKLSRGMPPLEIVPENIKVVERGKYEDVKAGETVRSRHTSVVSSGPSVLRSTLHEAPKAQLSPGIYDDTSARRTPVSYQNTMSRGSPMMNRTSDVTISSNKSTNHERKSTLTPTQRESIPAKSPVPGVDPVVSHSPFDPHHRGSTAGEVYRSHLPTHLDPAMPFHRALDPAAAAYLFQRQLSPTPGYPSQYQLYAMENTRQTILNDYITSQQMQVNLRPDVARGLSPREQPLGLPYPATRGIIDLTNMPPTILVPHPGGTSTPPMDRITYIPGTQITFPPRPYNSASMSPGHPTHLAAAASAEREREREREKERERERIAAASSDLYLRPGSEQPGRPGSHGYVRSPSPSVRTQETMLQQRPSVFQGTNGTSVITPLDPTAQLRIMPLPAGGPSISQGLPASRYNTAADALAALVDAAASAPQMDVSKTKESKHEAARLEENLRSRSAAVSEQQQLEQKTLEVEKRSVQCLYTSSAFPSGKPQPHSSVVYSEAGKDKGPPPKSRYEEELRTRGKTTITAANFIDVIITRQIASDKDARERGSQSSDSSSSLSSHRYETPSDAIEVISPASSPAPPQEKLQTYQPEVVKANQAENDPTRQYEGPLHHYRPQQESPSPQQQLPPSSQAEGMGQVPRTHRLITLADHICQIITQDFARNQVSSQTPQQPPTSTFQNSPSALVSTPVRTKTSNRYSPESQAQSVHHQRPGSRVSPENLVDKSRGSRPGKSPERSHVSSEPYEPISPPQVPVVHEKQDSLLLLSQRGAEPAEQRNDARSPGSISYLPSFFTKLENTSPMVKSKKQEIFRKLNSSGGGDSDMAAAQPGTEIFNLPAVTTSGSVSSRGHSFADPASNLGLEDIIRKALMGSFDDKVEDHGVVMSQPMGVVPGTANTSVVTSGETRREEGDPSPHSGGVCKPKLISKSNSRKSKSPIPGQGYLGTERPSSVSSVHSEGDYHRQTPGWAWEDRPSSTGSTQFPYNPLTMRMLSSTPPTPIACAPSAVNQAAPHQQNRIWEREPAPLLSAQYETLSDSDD

binding result [1]: binds
B1: recombinant GST-tagged HDAC4 (amino acid 627-1085) (domain or fragment, human, UniProt P56524 627-1084, looked up)
chain: LSRAQSSPASATFPVSVQEPPTKPRFTTGLVYDTLMLKHQCTCGSSSSHPEHAGRIQSIWSRLQETGLRGKCECIRGRKATLEELQTVHSEAHTLLYGTNPLNRQKLDSKKLLGSLASVFVRLPCGGVGVDSDTIWNEVHSAGAARLAVGCVVELVFKVATGELKNGFAVVRPPGHHAEESTPMGFCYFNSVAVAAKLLQQRLSVSKILIVDWDVHHGNGTQQAFYSDPSVLYMSLHRYDDGNFFPGSGAPDEVGTGPGVGFNVNMAFTGGLDPPMGDAEYLAAFRTVVMPIASEFAPDVVLVSSGFDAVEGHPTPLGGYNLSARCFGYLTKQLMGLAGGRIVLALEGGHDLTAICDASEACVSALLGNELDPLPEKVLQQRPNANAVRSMEKVMEIHSKYWRCLQRTTSTAGRSLIEAQTCENEEAETVTAMASLSVGVKPAEKRPDEEPMEEEPPL

Kd [2]: 1 nM
B2: human full length N-terminal GST-tagged HDAC4 (natural protein, UniProt P56524 1-1084, looked up)
chain: MSSQSHPDGLSGRDQPVELLNPARVNHMPSTVDVATALPLQVAPSAVPMDLRLDHQFSLPVAEPALREQQLQQELLALKQKQQIQRQILIAEFQRQHEQLSRQHEAQLHEHIKQQQEMLAMKHQQELLEHQRKLERHRQEQELEKQHREQKLQQLKNKEKGKESAVASTEVKMKLQEFVLNKKKALAHRNLNHCISSDPRYWYGKTQHSSLDQSSPPQSGVSTSYNHPVLGMYDAKDDFPLRKTASEPNLKLRSRLKQKVAERRSSPLLRRKDGPVVTALKKRPLDVTDSACSSAPGSGPSSPNNSSGSVSAENGIAPAVPSIPAETSLAHRLVAREGSAAPLPLYTSPSLPNITLGLPATGPSAGTAGQQDAERLTLPALQQRLSLFPGTHLTPYLSTSPLERDGGAAHSPLLQHMVLLEQPPAQAPLVTGLGALPLHAQSLVGADRVSPSIHKLRQHRPLGRTQSAPLPQNAQALQHLVIQQQHQQFLEKHKQQFQQQQLQMNKIIPKPSEPARQPESHPEETEEELREHQALLDEPYLDRLPGQKEAHAQAGVQVKQEPIESDEEEAEPPREVEPGQRQPSEQELLFRQQALLLEQQRIHQLRNYQASMEAAGIPVSFGGHRPLSRAQSSPASATFPVSVQEPPTKPRFTTGLVYDTLMLKHQCTCGSSSSHPEHAGRIQSIWSRLQETGLRGKCECIRGRKATLEELQTVHSEAHTLLYGTNPLNRQKLDSKKLLGSLASVFVRLPCGGVGVDSDTIWNEVHSAGAARLAVGCVVELVFKVATGELKNGFAVVRPPGHHAEESTPMGFCYFNSVAVAAKLLQQRLSVSKILIVDWDVHHGNGTQQAFYSDPSVLYMSLHRYDDGNFFPGSGAPDEVGTGPGVGFNVNMAFTGGLDPPMGDAEYLAAFRTVVMPIASEFAPDVVLVSSGFDAVEGHPTPLGGYNLSARCFGYLTKQLMGLAGGRIVLALEGGHDLTAICDASEACVSALLGNELDPLPEKVLQQRPNANAVRSMEKVMEIHSKYWRCLQRTTSTAGRSLIEAQTCENEEAETVTAMASLSVGVKPAEKRPDEEPMEEEPPL
